Earlier results as cited in article PMC2744096.

Biological target: MLL (Homo sapiens) (UniProt Q03164)

Kd: 3 µM
Substance: CBP KIX (from UniProt Q92793)
